Each binder was assayed against biotinylated human DLL3 protein expressed as a human IgG1 fusion protein (human) (UniProt Q9NYJ7) (assay: Octet, biotinylated human DLL3-IgG1 fusion on streptavidin tips, single 50 nM, conditioned medium (relative KD)).
Sequence of biotinylated human DLL3 protein expressed as a human IgG1 fusion protein (human) (Q9NYJ7 27-492): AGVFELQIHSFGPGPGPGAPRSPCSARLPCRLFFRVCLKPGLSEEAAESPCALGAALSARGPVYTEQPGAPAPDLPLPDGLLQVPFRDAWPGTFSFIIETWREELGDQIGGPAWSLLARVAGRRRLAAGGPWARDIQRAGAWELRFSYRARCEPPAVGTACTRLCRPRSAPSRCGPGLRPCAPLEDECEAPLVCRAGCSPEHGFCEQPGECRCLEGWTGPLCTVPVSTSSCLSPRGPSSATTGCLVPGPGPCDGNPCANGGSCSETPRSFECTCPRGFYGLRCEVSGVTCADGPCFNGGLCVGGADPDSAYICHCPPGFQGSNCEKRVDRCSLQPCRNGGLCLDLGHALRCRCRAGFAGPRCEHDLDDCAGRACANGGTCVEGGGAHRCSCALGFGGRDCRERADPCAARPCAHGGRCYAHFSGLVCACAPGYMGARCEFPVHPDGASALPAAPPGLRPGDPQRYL

Binder	Kd [µM]
anti-DLL3 trispecific protein, DLL3 binder 3G07 (protein, part only; not given: anti-CD3 fragment and anti-albumin sdAb, part only) chain, part: EVQLVESGGGLVQPGGSLTLSCAASGSSVSFLSMAWYRQAPGKKRELVAGISRDGSTDYIDSVKGRFTISRDNAKNSVYLQMNSLRAEDTAVYYCYAYRWTSRYTYWGQGTLVTVSSGGGGSGGGSGGGGSGGGSHHHHHH	0.013
anti-DLL3 trispecific protein, DLL3 binder 4E011 (protein, part only; not given: anti-CD3 fragment and anti-albumin sdAb, part only) chain, part: EVQLVESGGGLVQPGGSLTLSCAASGSSVSFLSMAWYRQAPGKKRELVAGISATGSTDYIDSVKGRFTISRDNAKNSVYLQMNSLRAEDTAVYYCYAYRWSTRYTYWGQGTLVTVSSGGGGSGGGSGGGGSGGGSHHHHHH	0.013
anti-DLL3 trispecific protein, DLL3 binder 4H03 (protein, part only; not given: CD3 binder and albumin binder, part only) chain, part: EVQLVESGGGLVQPGGSLTLSCAASGSRVSFLSMAWYRQAPGKKRELVAGISADGSTSYIDSVKGRFTISRDNAKNSVYLQMNSLRAEDTAVYYCYAYRWTTRYTYWGQGTLVTVSSGGGGSGGGSGGGGSGGGSHHHHHH	0.013
anti-DLL3 trispecific protein, DLL3 binder 4A06 (protein, part only; not given: anti-CD3 fragment and anti-albumin domain, part only) chain, part: EVQLVESGGGLVQPGGSLTLSCAASGSSVRFLSMAWYRQAPGKKRELVAGISRDGSTDYIDSVKGRFTISRDNAKNSVYLQMNSLRAEDTAVYYCYAYRWTTRRTYWGQGTLVTVSSGGGGSGGGSGGGGSGGGSHHHHHH	0.013
anti-DLL3 trispecific protein, DLL3 binder 3B010 (protein, part only; not given: anti-CD3 and anti-albumin domains, part only) chain, part: EVQLVESGGGLVQPGGSLTLSCAASGSSVSFLSMAWYRQAPGKKRELVAGISRDGSTDYIDSVKGRFTISRDNAKNSVYLQMNSLRAEDTAVYYCYAYRWVTRYTYWGQGTLVTVSSGGGGSGGGSGGGGSGGGSHHHHHH	0.012
anti-DLL3 trispecific protein, DLL3 binder 3G08 (protein, part only; not given: anti-CD3 fragment and anti-albumin sdAb, part only) chain, part: EVQLVESGGGLVQPGGSLTLSCAASGSRVSFLSMAWYRQAPGKKRELVAGISKDGSTDYIDSVKGRFTISRDNAKNSVYLQMNSLRAEDTAVYYCYAYRWTTRVTYWGQGTLVTVSSGGGGSGGGSGGGGSGGGSHHHHHH	0.012
anti-DLL3 trispecific protein, DLL3 binder 3F03 (protein, part only; not given: CD3 fragment and albumin sdAb, part only) chain, part: EVQLVESGGGLVQPGGSLTLSCAASGSSVSFLSMAWYRQAPGKKRELVAGISADGSTDYIDSVKGRFTISRDNAKNSVYLQMNSLRAEDTAVYYCYAYRWRTRYTYWGQGTLVTVSSGGGGSGGGSGGGGSGGGSHHHHHH	0.013
anti-DLL3 trispecific protein, DLL3 binder 3A03 (protein, part only; not given: CD3 fragment and albumin sdAb, part only) chain, part: EVQLVESGGGLVQPGGSLTLSCAASGSRVSFLSMAWYRQAPGKKRELVAGISRDGSTDYIDSVKGRFTISRDNAKNSVYLQMNSLRAEDTAVYYCYAYRWTTRRTYWGQGTLVTVSSGGGGSGGGSGGGGSGGGSHHHHHH	0.012
anti-DLL3 trispecific protein, DLL3 binder 3A010 (protein, part only; not given: anti-CD3 fragment and anti-albumin sdAb, part only) chain, part: EVQLVESGGGLVQPGGSLTLSCAASGSRVSFLSMAWYRQAPGKKRELVAGISADGSTLYIDSVKGRFTISRDNAKNSVYLQMNSLRAEDTAVYYCYAYRWTTRRTYWGQGTLVTVSSGGGGSGGGSGGGGSGGGSHHHHHH	0.012
anti-DLL3 trispecific protein, DLL3 binder 3H07 (protein, part only; not given: anti-CD3 and anti-albumin domains, part only) chain, part: EVQLVESGGGLVQPGGSLTLSCAASGSRVSFLSMAWYRQAPGKKRELVAGISADGSTSYIDSVKGRFTISRDNAKNSVYLQMNSLRAEDTAVYYCYAYRWRTRYTYWGQGTLVTVSSGGGGSGGGSGGGGSGGGSHHHHHH	0.013
anti-DLL3 trispecific protein, DLL3 binder 4B04 (protein, part only; not given: anti-CD3 fragment and anti-albumin sdAb, part only) chain, part: EVQLVESGGGLVQPGGSLTLSCAASGSSVLFLSMAWYRQAPGKKRELVAGVSSDGSTDYIDSVKGRFTISRDNAKNSVYLQMNSLRAEDTAVYYCYAYRWRTRYTYWGQGTLVTVSSGGGGSGGGSGGGGSGGGSHHHHHH	0.012
anti-DLL3 trispecific protein, DLL3 binder 4F03 (protein, part only; not given: CD3 binder and albumin binder, part only) chain, part: EVQLVESGGGLVQPGGSLTLSCAASGSSVQFLSMAWYRQAPGKKRELVAGISYDGSTDYIDSVKGRFTISRDNAKNSVYLQMNSLRAEDTAVYYCYAYRWRTRYTYWGQGTLVTVSSGGGGSGGGSGGGGSGGGSHHHHHH	0.012
anti-DLL3 trispecific protein, DLL3 binder 2C01 (protein, part only; not given: anti-CD3 fragment and anti-albumin sdAb, part only) chain, part: EVQLVESGGGLVQPGGSLTLSCVASGSTASINAMGWYRRAPGKQRELVAGISSDGSKVYADSVKGRFTISRDNAKNSVYLQMNSLRAEDTAVYYCYYFRYVSGSSMRYWGQGTLVTVSSGGGGSGGGSGGGGSGGGSHHHHHH	0.012
anti-DLL3 trispecific protein, DLL3 binder 1B08 (protein, part only; not given: CD3 binder and albumin binder, part only) chain, part: EVQLVESGGGLVQPGGSLTLSCVASGTTSSINAMGWYRRAPGKQRELVAGISSDGSKVYVDSVKGRFTISRDNAKNSVYLQMNSLRAEDTAVYYCYYFRFVSGSSMRYWGQGTLVTVSSGGGGSGGGSGGGGSGGGSHHHHHH	0.012
anti-DLL3 trispecific protein, DLL3 binder 2G011 (protein, part only; not given: anti-CD3 fragment and anti-albumin sdAb, part only) chain, part: EVQLVESGGGLVQPGGSLTLSCVASGSTSSINAMGWYRRAPGKQRELPAGISRDGSKVYADSVKGRFTISRDNAKNSVYLQMNSLRAEDTAVYYCYYFRYVSGSSMRYWGQGTLVTVSSGGGGSGGGSGGGGSGGGSHHHHHH	0.013
anti-DLL3 trispecific protein, DLL3 binder 1F07 (protein, part only; not given: CD3 fragment and albumin sdAb, part only) chain, part: EVQLVESGGGLVQPGGSLTLSCVASGSTSSINAMGWYRRAPGKQRELVAGISSDGSKVDADSVKGRFTISRDNAKNSVYLQMNSLRAEDTAVYYCYYFRTVSGSSMRYWGQGTLVTVSSGGGGSGGGSGGGGSGGGSHHHHHH	0.013

Results, then the binder that gave them:

Kd [µM]	Binder
0.011	anti-DLL3 trispecific protein, DLL3 binder 3E011 (protein, part only; not given: CD3 binder and albumin binder, part only) chain, part: EVQLVESGGGLVQPGGSLTLSCAASGSKVSFLSMAWYRQAPGKKRELVAGISRDGSTDYIDSVKGRFTISRDNAKNSVYLQMNSLRAEDTAVYYCYAYRWTTRYTFWGQGTLVTVSSGGGGSGGGSGGGGSGGGSHHHHHH
0.012	anti-DLL3 trispecific protein, DLL3 binder 3E02 (protein, part only; not given: anti-CD3 fragment and anti-albumin domain, part only) chain, part: EVQLVESGGGLVQPGGSLTLSCAASGSGVRFLSMAWYRQAPGKKRELVAGISPDGSTDYIDSVKGRFTISRDNAKNSVYLQMNSLRAEDTAVYYCYAYRWTRRYTYWGQGTLVTVSSGGGGSGGGSGGGGSGGGSHHHHHH
0.011	anti-DLL3 trispecific protein, DLL3 binder 4E07 (protein, part only; not given: CD3 binder and albumin binder, part only) chain, part: EVQLVESGGGLVQPGGSLTLSCAASGSRVSFLSMAWYRQAPGKKRELVAGISADGSTMYIDSVKGRFTISRDNAKNSVYLQMNSLRAEDTAVYYCYAYRWTTRLTYWGQGTLVTVSSGGGGSGGGSGGGGSGGGSHHHHHH
0.012	anti-DLL3 trispecific protein, DLL3 binder 3G06 (protein, part only; not given: CD3 binder and albumin binder, part only) chain, part: EVQLVESGGGLVQPGGSLTLSCAASGSSVKFLSMAWYRQAPGKKRELVAGISADGSTLYIDSVKGRFTISRDNAKNSVYLQMNSLRAEDTAVYYCYAYRWTTRRTYWGQGTLVTVSSGGGGSGGGSGGGGSGGGSHHHHHH
0.012	anti-DLL3 trispecific protein, DLL3 binder 3A08 (protein, part only; not given: CD3 binder and albumin binder, part only) chain, part: EVQLVESGGGLVQPGGSLTLSCAASGSSVGFLSMAWYRQAPGKKRELVAGISADGSTDYIRSVKGRFTISRDNAKNSVYLQMNSLRAEDTAVYYCYAYRWRTRYTYWGQGTLVTVSSGGGGSGGGSGGGGSGGGSHHHHHH
0.012	anti-DLL3 trispecific protein, DLL3 binder 3D02 (protein, part only; not given: anti-CD3 fragment and anti-albumin sdAb, part only) chain, part: EVQLVESGGGLVQPGGSLTLSCAASGSSVRFLSMAWYRQAPGKKRELVAGISRDGSTDYIDSVKGRFTISRDNAKNSVYLQMNSLRAEDTAVYYCYAYRWITRYTYWGQGTLVTVSSGGGGSGGGSGGGGSGGGSHHHHHH
0.012	anti-DLL3 trispecific protein, DLL3 binder 3F09 (protein, part only; not given: anti-CD3 fragment and anti-albumin sdAb, part only) chain, part: EVQLVESGGGLVQPGGSLTLSCAASGSSVRFLSMAWYRQAPGKKRELVAGISRDGSTDYIDSVKGRFTISRDNAKNSVYLQMNSLRAEDTAVYYCYAYRWGTRYTYWGQGTLVTVSSGGGGSGGGSGGGGSGGGSHHHHHH
0.011	anti-DLL3 trispecific protein, DLL3 binder 3E04 (protein, part only; not given: CD3 fragment and albumin sdAb, part only) chain, part: EVQLVESGGGLVQPGGSLTLSCAASGSSVHFLSMAWYRQAPGKKRELVAGISRDGSTDYIDSVKGRFTISRDNAKNSVYLQMNSLRAEDTAVYYCYAYRWTTRYRYWGQGTLVTVSSGGGGSGGGSGGGGSGGGSHHHHHH
0.012	anti-DLL3 trispecific protein, DLL3 binder 3B02 (protein, part only; not given: CD3 fragment and albumin sdAb, part only) chain, part: EVQLVESGGGLVQPGGSLTLSCAASGSSVQFLSMAWYRQAPGKKRELVAGISADGSTDYINSVKGRFTISRDNAKNSVYLQMNSLRAEDTAVYYCYAYRWRTRYTYWGQGTLVTVSSGGGGSGGGSGGGGSGGGSHHHHHH
0.011	anti-DLL3 trispecific protein, DLL3 binder 4E01 (protein, part only; not given: anti-CD3 fragment and anti-albumin sdAb, part only) chain, part: EVQLVESGGGLVQPGGSLTLSCAASGSSVSFLSVAWYRQAPGKKRELVAGISRDGSTDYIDSVKGRFTISRDNAKNSVYLQMNSLRAEDTAVYYCYAYRWRTRYTYWGQGTLVTVSSGGGGSGGGSGGGGSGGGSHHHHHH
0.011	anti-DLL3 trispecific protein, DLL3 binder 3D03 (protein, part only; not given: anti-CD3 fragment and anti-albumin sdAb, part only) chain, part: EVQLVESGGGLVQPGGSLTLSCAASGSSVVFLSMAWYRQAPGKKRELVAGISADGSMDYIDSVKGRFTISRDNAKNSVYLQMNSLRAEDTAVYYCYAYRWRTRYTYWGQGTLVTVSSGGGGSGGGSGGGGSGGGSHHHHHH
0.011	anti-DLL3 trispecific protein, DLL3 binder 1B04 (protein, part only; not given: CD3 fragment and albumin sdAb, part only) chain, part: EVQLVESGGGLVQPGGSLTLSCVASGTTSSINAMGWYRRAPGKQRELVAGISSDGSLVYADSVKGRFTISRDNAKNSVYLQMNSLRAEDTAVYYCYYFRIVRGSSMRYWGQGTLVTVSSGGGGSGGGSGGGGSGGGSHHHHHH
0.011	anti-DLL3 trispecific protein, DLL3 binder 2B011 (protein, part only; not given: CD3 binder and albumin binder, part only) chain, part: EVQLVESGGGLVQPGGSLTLSCVASGNTSSINAMGWYRRAPGKQRELVAGISSDGSRVYADSVKGRFTISRDNAKNSVYLQMNSLRAEDTAVYYCYYFRTVSGSSMRSWGQGTLVTVSSGGGGSGGGSGGGGSGGGSHHHHHH
0.011	anti-DLL3 trispecific protein, DLL3 binder 1G04 (protein, part only; not given: anti-CD3 fragment and anti-albumin sdAb, part only) chain, part: EVQLVESGGGLVQPGGSLTLSCVASGSTSSTNAMGWYRRAPGKQRELVAGISSDGSKVLADSVKGRFTISRDNAKNSVYLQMNSLRAEDTAVYYCYYFRTVNLSSMRYWGQGTLVTVSSGGGGSGGGSGGGGSGGGSHHHHHH
0.011	anti-DLL3 trispecific protein, DLL3 binder 2E06 (protein, part only; not given: CD3 binder and albumin binder, part only) chain, part: EVQLVESGGGLVQPGGSLTLSCVASGSTSSINAMGWYRRAPGKQRELVAGISSDGSKVYASSVKGRFTISRDNAKNSVYLQMNSLRAEDTAVYYCYYFRTVRGSSMRYWGQGTLVTVSSGGGGSGGGSGGGGSGGGSHHHHHH

From patent US20200095340A1
